In experiment [1] the target is human CD20 (human) (UniProt P11836). Put plainly: Scatchard analysis, cold antibody against 125I-2H7.v16 on WIL2-S cells, n=3.
Experiment [2] has the same target. Put plainly: cell-based or functional assay.

Sequence of human CD20 (human) (P11836 whole entry): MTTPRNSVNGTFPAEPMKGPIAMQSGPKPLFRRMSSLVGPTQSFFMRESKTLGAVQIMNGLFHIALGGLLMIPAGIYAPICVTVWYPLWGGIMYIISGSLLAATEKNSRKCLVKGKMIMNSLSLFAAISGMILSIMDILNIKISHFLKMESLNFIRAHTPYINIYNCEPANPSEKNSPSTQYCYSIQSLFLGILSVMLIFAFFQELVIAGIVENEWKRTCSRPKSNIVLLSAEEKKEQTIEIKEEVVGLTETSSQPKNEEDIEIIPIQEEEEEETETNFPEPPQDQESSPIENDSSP

With RITUXAN® (rituximab) (antibody), the equilibrium dissociation constant (Kd) (as a rule, the equilibrium constant for the complex coming apart) in experiment [1] amounted to 0.99 nM. Moreover, in experiment [2], the ADCC: EC50(variant)/EC50(2H7.v16) worked out at 5.3, the ADCC: EC50(variant)/EC50(RITUXAN®) came out at 1 and the CDC: EC50(variant)/EC50(RITUXAN®) came to 1.

Source of the values: patent US20070031331A1.
